From PMC3068996

Target: recombinant GST-tagged TgNF3 (Toxoplasma gondii nuclear factor 3) (T. gondii)
Test: pull-down

## purified core histones from HeLa cells (H3, H4, H2A/H2B) (from UniProt P68431 1-136; P62805 1-103; P0C0S8 1-130; P62807 1-126) (complex)
  percent of input bound: 25%
